Measurements taken from PMC11362013, “Mechanism for controlled assembly of transcriptional condensates by Aire” (Nature Immunology, 2024).

T1: CBP TAZ2 (mouse, UniProt P45481 1764-1855)
T1 construct: the recombinant construct itself is described in the Supplementary Note; also called isolated CBP TAZ2; recombinant CBP TAZ2; source: E. coli, purified (details in the Supplementary Note)
T1 sequence (looked up): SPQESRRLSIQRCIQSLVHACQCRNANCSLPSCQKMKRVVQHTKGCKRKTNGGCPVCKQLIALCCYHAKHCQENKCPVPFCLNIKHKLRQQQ

T2: CBP TAZ2 (mouse, UniProt P45481 1764-1855)
T2 chain: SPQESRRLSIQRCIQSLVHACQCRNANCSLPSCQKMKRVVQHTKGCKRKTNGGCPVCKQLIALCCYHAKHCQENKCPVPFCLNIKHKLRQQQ


Assays:
[1] = biological target: FAM-labeled H3 peptide (aa 1-21) with no modification (UniProt P68431); assay: fluorescence polarisation; 50 nM fluorescein-labeled H3 peptide, increasing PHD (0-900 μM) in SEC Buffer (25 mM HEPES pH 7.5, 100 mM NaCl, 5 mM BME), 25 °C; simple binding isotherm
[2] = biological target: FAM-labeled H3 peptide (aa 1-21) with K4me1 (UniProt P68431); assay: as above
CBP TAZ2 [3] = biological target: T1, CBP TAZ2; assay: ITC; 760 μM mouse Aire CTT in the syringe, 19-76 μM TAZ2 in the cell; 20 °C; 20 mM HEPES pH 7.5, 100 mM NaCl, 1 mM dithiothreitol; two-site binding model; conditions: both partners purified
CBP TAZ2 [4] = biological target: T2, CBP TAZ2; assay: ITC; two-site model, second site

Kd [1] [µM]	Kd [2] [µM]	Kd of the high-affinity site (two-site model) (CBP TAZ2 [3]) [µM]	Kd of the second, low-affinity site (two-site model) (CBP TAZ2 [3]) [µM]	Kd (CBP TAZ2 [4]) [µM]	Molecule
45.3	–	–	–	–	CHD4 PHD2 (domain or fragment)
5.25	23.2	–	–	–	mouse Aire PHD1 (domain or fragment)
–	–	0.26	40	39.7	mouse Aire CTT (aa 480-552) (domain or fragment, UniProt Q9Z0E3 480-552, looked up, Aire (autoimmune regulator), mouse, C-terminal tail (CTT), residues 480-552; Used in NMR (15N13C-labelled) and ITC; whether tags were left on it is told only in the Supplementary Note; also called isolated CTT; source: E. coli, purified (details in the Supplementary Note)) TPTPGTPGEAVPTSGPRPAPGLAKVGDDSASHDPVLHRDDLESLLNEHSFDGILQWAIQSMSRPLAETPPFSS
